“Also recorded” adds a separate entry of the source.
How the values were obtained:
[1] = molecular target: Coa-C311-636, Coa-F311-505, Coa-R0474-505; settings: all three Coa fragments (Coa-C311-636, Coa-F311-505, Coa-R0474-505)
Description: (§1) Apparent affinity values were generated through analysis of the half maximum binding in ELISA, using […] PRISM® Version 6.01.

[2] = system: Coa-F, Coa-R0, Efb-N, Efb-O, Efb-A binding to Fg; test: Inhibition by FBE5 scFv-Fc of Coa and Efb fragment binding to immobilized human Fg; design: species or system Staphylococcus aureus; settings: scFv-Fc 0.5, 5, 50 μg/ml; Coa-F, Coa-R0, Efb-N, Efb-O 10 nM; Efb-A 750 nM
Description: To assess the inhibitory activity of anti-Coa scFv-Fc antibodies, 0.5 μg/well of human Fg was immobilized at 4° C. overnight in 50 mM Carbonate Buffer, pH 9.6. Indicated amounts (50, 5, 0.5 μg/ml) of scFv-Fcs prepared in 2% BSA+1×TBS+0.05% TWEEN® 20 were pre-incubated for 1 hour with a constant concentration of Coa or Efb fragments also prepared in 2% BSA+1×TBS+0.05% TWEEN® 20 at room temperature, 250 rpm shaking. Specifically, Coa-F, Coa-R0, Efb-N and Efb-O were at a fixed concentration of 10 nM; whereas Efb-A was at 750 nM. Fg-binding activity of each protein alone was also checked (no mAb control—0 μg/ml). The Fg-coated plate was blocked with 2% BSA-TBST and washed with PBST. […] Residual bound Coa and Efb fragments were detected with HRP-conjugated (HorseRadish Peroxidase-conjugated) α-GST-tag antibody, except for Efb-N, where an HRP-conjugated α-HIS-tag was used (see FIG. 18). HRP-tagged antibodies were diluted in 2% BSA+1×TBS+0.05% TWEEN® 20 and used at 1:10000 dilution. […] HRP signal was developed using […]™ OPD tablets using manufacturer's guidelines. Binding of Coa and Efb fragments to Fg (no mAb control) was set to 100% and residual binding to Fg of Coa and Efb fragments in the presence of different concentrations of antibodies was calculated and represented.
To assess the inhibitory activity of anti-Coa scFv-Fc antibodies, 0.5 μg/well of human Fg was immobilized at 4° C. overnight in 50 mM Carbonate Buffer, pH 9.6. Indicated amounts (0, 0.5, 5, and 50 μg/ml) of scFv-Fcs were pre-incubated for 1 hour with a constant concentration of Coa or Efb fragments. Specifically, Coa-F, Coa-R0, Efb-N and Efb-O were at a fixed concentration of 10 nM; whereas Efb-A was at 750 nM. Fg-binding activity of each protein alone was also checked (no mAb control—0 μg/ml). The Fg-coated plate was blocked with 2% BSA-PBST and washed with PBST. The pre-incubated mixture of Coa/Efb and anti-Coa scFv-Fc was transferred on the Fg-coated plate. Residual bound Coa and Efb fragments were detected with HRP-conjugated (HorseRadish Peroxidase-conjugated) α-GST-tag antibody, except for Efb-N, where an HRP-conjugated α-HIS-tag was used. Binding of Coa and Efb fragments to Fg (no mAb control) was set to 100% and residual binding to Fg of Coa and Efb fragments in the presence of different concentrations of antibodies was calculated and represented.

CoaC and CoaR = test: Peptide (CoaRO, CoaRI) inhibition of LIG40 mAbs binding to immobilized CoaC and CoaR; design: species or system Staphylococcus aureus; settings: mAbs 0.5 μg/ml; 200 ng/well
Description: To investigate if LIG40 mAbs could be inhibited by CoaRO and CoaRI peptides, CoaC and CoaR (200 ng/well) was immobilized at 4° C. overnight in 50 mM Carbonate Buffer, pH 9.6. A fixed concentration of mAbs (0.5 μg/ml) prepared in 2% BSA+1×TBS+0.05% TWEEN® 20 was added to the wells along with indicated amounts of CoaRO and CoaRI peptides prepared in 1X TBS. Incubation for 1 hour, room temperature, 250 rpm shaking followed. After washing, the levels of bound mAbs were determined using a polyclonal α-human IgG HRP-conjugated Ab diluted 1:10000 in 2% BSA+1×TBS+0.05% TWEEN® 20. […] The development was performed through […]™ OPD tablets following manufacturer's protocol. […] First, to achieve appreciable inhibition high concentration of peptides needed to be used (above 100 μM).
To investigate if LIG40 mAbs could be inhibited by CoaRO and CoaRI peptides, CoaC and CoaR (200 ng/well) was immobilized at 4° C. overnight in 50 mM Carbonate Buffer, pH 9.6. A fixed concentration of mAbs (0.5 μg/ml) was added to the wells along with, indicated amounts of CoaRO and CoaRI peptides. Incubation for 1 hour, room temperature, 250 rpm shaking followed. After washing, […] were incubated with polyclonal α-human IgG HRP-conjugated Ab. […] First, to achieve appreciable inhibition high concentration of peptides needed to be used (above 100 μM).

Coa-C311-636 = test: Solid-phase binding ELISA of scFv-Fc antibodies to Coa-C311-636; design: species or system Staphylococcus aureus; settings: 200 ng/well
Description: (§2) As well, binding was tested against Coa fragments, namely Coa-C311-636. Coa-F311-505. Coa-R0474-505 and Coa-R506-636. Recombinant proteins Efb-N30-105, Efb-A30-67, Efb-O68-98, Coa-C311-636, Coa-F311-505, Coa-R0474-505 and Coa-R506-636 were diluted in 50 mM sodium carbonate pH 9.6 and immobilized at the concentration of 200 ng/well for 1 hour at room temperature. Immobilized proteins were probed for recognition in a solid-phase binding assay with different quantities of LIG40 antibodies after blocking and washing. After washing, varying concentrations of LIG40 scFv-Fc antibodies were diluted in 2% BSA+1×PBS+0.05% TWEEN® 20 and incubated with the immobilized proteins for 1 hour at room temperature with shaking at 250 rpm. Bound scFv-Fcs were detected using polyclonal α-human IgG HRP-conjugated Ab diluted to 1:10000 in 2% BSA+1×PBS+0.05% TWEEN® 20. HRP-conjugated Ab was incubated for 1 hour at room temperature with shaking at 250 rpm.
as §1

[3] = system: Coa-F311-505 and Coa-R0474-505; test: Solid-phase binding ELISA of LIG40 antibodies to Coa-F311-505 and Coa-R0474-505; design: species or system Staphylococcus aureus; settings: 200 ng/well
Description: As well, binding was tested against Coa fragments, namely Coa-C311-636. Coa-F311-505. Coa-R0474-505 and Coa-R506-636. […] Immobilized proteins were probed for recognition in a solid-phase binding assay with different quantities of LIG40 antibodies after blocking and washing. […] HRP signal was developed with […]™ OPD using manufacturers guidelines. These 2 antibodies bound only Coa fragments in a dose dependent manner. No binding to truncated recombinant Efb proteins was observed.
For both antibodies, values in the range of 10^−10-10^−11 M were obtained.

Coa-R506-636 = molecular target: T1, Coa-R506-636 (Staphylococcus aureus, UniProt P07767); assay type: binding; settings: 200 ng/well
T1 construct: the Coa-R is corresponding to the tandem-repeat region covering residue 506-636; GST (N); made in house; host or cells: E. coli BL21
Description: as §2, §1

Molecule	apparent Kd of anti-CoaC mAbs to Coa fragments (EC50 in ELISA) [1]	inhibition of binding to Fg of all proteins tested [2]	inhibition of LIG40 mAb binding to CoaC and CoaR by peptides (CoaC and CoaR)	binding to Coa-C311-636 (Coa-C311-636)	binding to Coa-F311-505 and Coa-R0474-505 [3]	binding to Coa-R506-636 (Coa-R506-636)
FBE5-F11: VH SEQ ID NO: 81, VL SEQ ID NO: 111 (antibody, V domains shown) VH: QVQLQESGGGVVQPGRSLRLSCAASGFTFSSYGMHWVRQAPGKGLEWVAVISYDGSNKYYADSVKGRFTISRDNSKNTLYLQMNSLRAEDTAVYYCAKDLASSGFDYWGQGTLVTVSS VL: QSVLTQPPSVSAAPGQKVTISCSGSSSNIGNNYVSWYQQLPGTAPKLLIYDNNKRPSGIPDRFSGSKSGTSATLGITGLQTGDEADYYCGTWDSSLSAEVFGGGTKLTVL	highest affinity	dose dependent inhibition of all proteins tested; also recorded: marked inhibition against all fragments of Coa and Efb				
LIG40-D8: VH SEQ ID NO: 100, VL SEQ ID NO: 130; selected against Coa-R506-636 (antibody, V domains shown) VH: EVQLVESGGGVVQPGRSLRLSCAASGFTFSSYGMHWVRQAPGKGLEWVAVIWYDGSNKYYADSVKGRFTISRDNSKNTLYLQMNSLRAEDTAVYYCARDYHGDGFDYWGQGTLVTVSS VL: DIQMTQSPSSLSASVGDTVTITCRASQDINNYLAWFQQKPGKAPKSLISAASSLQNGVPLRFSGSASGADFTLTISGLQPEDSGTYYCQQYDVFPITFGPGTKVDIK			only impaired in its binding activity by CoaRO peptide	bound	detected to a minor extent; also recorded: minor binding	bound

Source: US11407819B2, “Compositions and use of a fibrinogen binding motif present in EFB and COA for therapeutics and vaccines against Staphylococcus aureus” (priority 2013, dated 2022)
